Measured values: US20240124575A1 (SIMCERE ZAIMING PHARMACEUTICAL, published 2024)
Blank lines part the entries; values can stand above or below the binder they belong to.

Key:
human CD33-C2-his = target: T1, human CD33-C2-his (human, UniProt P20138 136-260); test: ELISA on coated human CD33-C2-his
T1 construct: expressed in HEK293E; also called hCD33-C2-his; human CD33 protein C2-domain; not shown: His tag
Excerpt: Plates were coated with human CD33-V-his (membrane distal end) and human CD33-C2-his (membrane proximal end), respectively, according to the ELISA method in Example 8. The VHH humanized antibodies were classified based on the membrane distal end and the membrane proximal end, as shown in FIGS. 20A-20J and Table 44, which allowed the classification of the VHH humanized antibodies into the following classes: […]

[1] = target: T2, human CD33-His (extracellular domain Asp 18-His 259) (human, UniProt P20138 18-259); test: competitive ELISA vs coated S006-NB146-173 3ug/mL; soluble 25ug/ml
T2 construct: range 18-259; bought protein; also called hCD33-his; human CD33 protein; not shown: His tag

human CD33-his protein [2] = target: T3, human CD33-his protein (human, UniProt P20138 18-259); test: SPR (Biacore), antibody captured on Protein A chip, human CD33-his analyte
T3 construct: range 18-259; bought protein; also called hCD33-his; recombinant human CD33-his; not shown: His tag
Protocol: The sample and running buffer was HBS-EP+ (10 mM HEPES, 150 mM NaCl, 3 mM EDTA, 0.05% surfactant P20) (GE Healthcare; BR-1006-69). The flow cell was set at 25° C. The sample block was set at 16° C. Both were pretreated with the running buffer. In each cycle, first, the antibody to be tested was captured using the Protein A chip, and then a single concentration of CD33 antigen protein was injected. The association and dissociation processes of the antibody with the antigen protein were recorded, and finally, the chip was regenerated using Glycine pH 1.5 (GE Healthcare; BR-1003-54). The association was determined by injecting different concentrations of recombinant human CD33-his in the solution and maintaining for 240 s, wherein the flow rate was 30 μL/min, and the protein was diluted in a 1:1 dilution ratio from 200 nM to obtain 5 concentrations in total. The dissociation phase was monitored for up to 600 s and triggered by switching from the sample solution to the running buffer. The surface was regenerated by washing with 10 mM glycine solution (pH 1.5) at a flow rate of 30 μL/min for 30 s. The difference in bulk refractive index was corrected by subtracting the responses obtained from the […]. Blank injections were also subtracted (=double reference). To calculate the apparent KD and other kinetic parameters, the Langmuir 1:1 model was used.

human CD33-his protein [3] = target: T3, human CD33-his protein; test: competition ELISA, coated human CD33-his, vs Biotin-C33B904 at EC80; antibody 0.98 nM
Protocol: ELISA plates were coated with 2 μg/mL human CD33-his protein according to the method in Example 5.1; the Biotin-C331B904 antibody was subjected to a gradient dilution from 15 μg/mL, and EC80 values (0.18 μg/mL) were calculated. ELISA plates were coated with 2 μg/mL human CD33-his protein; starting from 40 μg/mL, the VHH antibodies to be tested were diluted in a 1:2 dilution ratio to obtain seven concentrations and added to the ELISA plates, and then Biotin-C331904 antibodies with the EC80 concentrations were added for incubation for 2 h. The plates were washed 5 times with PBS and then […] (purchased from Sigma, Cat. No. S2438) were added for incubation for 1 h, and the plates were washed 5 times. A TMB substrate was added at 50 μL/well and incubated at room temperature for 10 min, then a stop solution (1.0 M HCl) was added at 50 μL/well. OD_{450 nm} values were read using an ELISA plate reader (Insight, purchased from PerkinElmer). Then, analysis was performed by software (GraphPad Prism8), and data were fitted for curve plotting. The results are shown in FIGS. 13A-13B and Tables 28 and 29.

human CD33-his protein [4] = target: T3, human CD33-his protein; test: competition ELISA, coated human CD33-his, vs Biotin-C33B904 at EC80; antibody 0.49 nM
Protocol: (§1) The plate was sealed with a plastic film and incubated at 4° C. overnight, washed twice with PBS the next day, and a blocking solution [PBS+2% (w/w) BSA] was added for blocking at room temperature for 2 h. The blocking solution was discarded, and VHH-Fc antibody or negative control antibody serially diluted from 100 nM was added at 50 μL/well. After incubation at 37° C. for 2 h, the plate was washed 3 times with PBS. A secondary antibody labeled with HRP (horseradish peroxidase) (purchased from Sigma, Cat. No. A0170) was added. After incubation for 1 h at 37° C., the plate was washed 5 times with PBS. A TMB substrate was added at 50 μL/well. After incubation at room temperature for 10 min, a stop solution (1.0 N HCl) was added at 50 μL/well. The OD450 nm values were read on an ELISA plate reader (Multimode Plate Reader, EnSight, purchased from Perkin Elmer). The assay results for the binding of the VHH-Fc to hCD33-his by ELISA are shown in FIGS. 7A and 7B and Tables 11 and 12. […] The IgG control was hIgG1, and the data in the table are OD450 nm values.
(§2) ELISA plates were coated with 2 μg/mL human CD33-his protein according to the method in Example 5.1; the Biotin-C331B904 antibody was subjected to a gradient dilution from 15 μg/mL, and EC80 values (0.18 μg/mL) were calculated. […] OD_{450 nm} values were read using an ELISA plate reader (Insight, purchased from PerkinElmer). […]

human CD33-his protein [5] = target: T3, human CD33-his protein; test: competition ELISA, coated human CD33-his, vs Biotin-C33B904 at EC80; antibody 125.00 nM
Protocol: as §1, §2

human CD33-his protein [6] = target: T3, human CD33-his protein; test: competition ELISA, coated human CD33-his, vs Biotin-C33B904 at EC80; antibody 250.00 nM
Protocol: as §1, §2

T3 sequence (P20138 18-259 limits assumed): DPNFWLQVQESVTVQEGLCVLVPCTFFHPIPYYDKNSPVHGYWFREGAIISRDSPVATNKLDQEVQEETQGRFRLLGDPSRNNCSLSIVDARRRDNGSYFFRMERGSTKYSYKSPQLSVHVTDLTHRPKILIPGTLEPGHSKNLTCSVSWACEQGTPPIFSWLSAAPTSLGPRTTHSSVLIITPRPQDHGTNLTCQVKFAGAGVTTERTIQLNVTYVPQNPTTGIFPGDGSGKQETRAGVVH
T1 sequence (P20138 other isoform, or with tags, fused parts or gaps limits assumed): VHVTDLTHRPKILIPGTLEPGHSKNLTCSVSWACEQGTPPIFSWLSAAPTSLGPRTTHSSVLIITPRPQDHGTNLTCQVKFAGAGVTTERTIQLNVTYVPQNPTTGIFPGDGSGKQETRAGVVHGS
T2 sequence (P20138 18-259 limits assumed): as the sequence (P20138 18-259 limits assumed) above

- EC50 (read off the curve) (human CD33-C2-his): ~0.05 nM
- inhibition rate [1]: 100%
B1: C33B904 hIgG1 (antibody, V domains shown)
VH: EVQLVESGGGLVQPGRSLRLSCAASGFTFDDYAMHWVRQAPGKGLEWVSGIGWSGGSIVYADSVKGRFTISRDNAKNSLYLQMNSLRAEDTALYYCAKDSPYGDFFDYWGQGTLVTVSS
VL: DIVMTQSPDSLAVSLGERATINCKSSQTVFYSSNNKNYLAWYQQKPGQPPKLLISWASTRKSGVPDRFSGSGSGTDFTLTVSSLQAEDVAVYYCQHYYSTPYTFGQGTKLEIKR
notes: intact human IgG1; variable regions from US20190382481A1; also called C33B3904; C331B904

- Kd (human CD33-his protein [2]): 0.079 nM
- koff (human CD33-his protein [2]): 6.54e-05 s⁻¹
- kon (human CD33-his protein [2]): 828000 M⁻¹ s⁻¹
- OD450 (Biotin-C33B904 signal) (human CD33-his protein [3]): 2.22
- OD450 (Biotin-C33B904 signal) (human CD33-his protein [4]): 2.44
- OD450 (Biotin-C33B904 signal) (human CD33-his protein [5]): 0.16
- OD450 (Biotin-C33B904 signal) (human CD33-his protein [6]): 0.1
B2: C33B904 (antibody, human IgG1, kappa, V domains shown)
VH: B1 VH
VL: B1 VL
notes: control antibody, intact human IgG1 form; variable regions from US20190382481A1; also called C33B904 hIgG1; C331B904
